From patent publication US20200149062

Legend:
[1] = tested on: WT-TSC2-FLAG
[2] = tested on: TSC2-FLAG SA (S1365A)

Sequence of ERK2 (P28482 2-360): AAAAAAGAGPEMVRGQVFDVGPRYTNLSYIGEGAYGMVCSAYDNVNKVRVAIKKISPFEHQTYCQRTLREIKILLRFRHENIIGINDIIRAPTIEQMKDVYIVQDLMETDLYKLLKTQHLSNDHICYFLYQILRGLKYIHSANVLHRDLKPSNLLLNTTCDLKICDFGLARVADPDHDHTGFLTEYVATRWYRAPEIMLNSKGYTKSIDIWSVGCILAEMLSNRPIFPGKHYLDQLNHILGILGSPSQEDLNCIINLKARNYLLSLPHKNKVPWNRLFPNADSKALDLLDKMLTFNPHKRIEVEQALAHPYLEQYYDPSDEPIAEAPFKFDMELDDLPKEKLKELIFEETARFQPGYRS

## ERK2
[1]
  TSC2 radiolabeling with [gamma-33P]-ATP (in vitro kinase assay on FLAG-immune-precipitate): ERK2-TSC2 phosphorylation served as a positive control

## modified PKG (M438G)
[2]
  thiophosphate ester labeling of TSC2: both radioactive or thiophosphate ester labeling of TSC2 was also seen when SA TSC2 was used

## recombinant PKG (purified active PKG)
[2]
  radioactive labeling of TSC2 ([gamma-33P]-ATP, autoradiography): both radioactive or thiophosphate ester labeling of TSC2 was also seen when SA TSC2 was used
